Reference: patent US20240317847A1 (Bayer, published 2024)
Blank lines part the entries; values can stand above or below the binder they belong to.

Experiments:
human IL2Ra = biological target: T1, human IL2Ra (human, UniProt P01589 22-240, limits assumed); experiment: ELISA on coated IL2Ra, signal ratio to isotype control at 1E-07 M antibody
T1 construct: coated on the ELISA plate; also called IL-2 receptor alpha
T1 sequence (looked up): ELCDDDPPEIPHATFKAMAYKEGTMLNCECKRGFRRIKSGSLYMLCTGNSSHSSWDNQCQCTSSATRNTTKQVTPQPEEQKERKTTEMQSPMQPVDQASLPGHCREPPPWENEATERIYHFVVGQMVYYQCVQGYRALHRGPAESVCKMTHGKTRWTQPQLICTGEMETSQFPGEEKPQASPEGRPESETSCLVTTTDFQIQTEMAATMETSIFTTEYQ
Protocol: IL2RA (Peprotech, Germany, #200-02RC) was coated at 1 or 0 μg/ml (buffer only control) in 30 μl coating buffer (Candor, #113500) per well on a 384 well microtiter plate (Maxisorb, Nunc, #460518) over night at 4-8° C. After two washes with 50 μl/well washing buffer (PBS+0.05% Tween, pH 7.4), the plates were incubated for two hours at room temperature with 50 μl/well SmartBlock (Candor, #113500). After blocking, the plates were washed three times with washing buffer. Then, a dilution series of the respective antibody (1E-7 [M] down to 2E-13 [M]) in PBS+0.05% Tween, 10% SmartBlock were added in 30 μl to the microtiter plate and incubated for 90 min at room temperature. After three additional washes, 30 μl anti mouse IgG HRP-conjugated antibody (Biotechne, HAF007), diluted 1:1000 in PBS+0.05% Tween (pH 7.4), were added per well and incubated for one hour. After three additional washes, a mixture of Amplex red (Invitrogen, #12222, 10 mM stock solution in DMSO) 1:1000 diluted in PBS and H2O2 (30%, Merck, #107209)) diluted 1:10000 in PBS were added as substrate with 30 μl per well and incubated for 20 min in the dark. Relative fluorescence was measured with a microtiter plate reader at 535/590 nm.
Bispecific antibodies were subjected to the experimental assay procedure described in Example 20. Ratios of the signals generated at an antibody concentration of 1E-07 [M] by the respective bispecific antibody versus those of an isotype control antibody were calculated and are shown in Table E29. The bispecific antibodies show no binding to IL-2 Ra.

human IL-11 = biological target: T2, human IL-11 (human, UniProt P20809 22-199); experiment: Tri-complex ELISA, hIL-11 + mIL-11Ra-Fc + hgp130-Fc, inhibition of complex formation
T2 construct: Invigate recombinant protein; biotinylated when immobilized in the Di-complex ELISA; also called hIL11; hIL-11
T2 sequence: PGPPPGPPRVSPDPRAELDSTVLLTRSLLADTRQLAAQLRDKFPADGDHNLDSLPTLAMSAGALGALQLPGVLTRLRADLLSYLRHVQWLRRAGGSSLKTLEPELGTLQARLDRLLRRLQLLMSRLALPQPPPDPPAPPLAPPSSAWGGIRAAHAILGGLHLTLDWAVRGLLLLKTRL
Protocol: In the Tri-complex ELISA format IL-11 antibodies are tested for their ability to inhibit the formation of a complex consisting of murine or human gp130-Fc fusion protein, with murine or human IL-11, and a murine IL11RA-Fc fusion protein. The assay format was adapted according to FIG. 18 (a, b), depending on whether murine or human IL-11 IgG antibodies were tested.
IgG converted antibodies were subjected to the experimental assay procedure described in Example 19 and IC50 [M], respectively efficacy (%) were calculated accordingly.

B3: TPP-29519 (antibody, mouse IgG1)
heavy: QVQLVESGGGVVQPGRSLRLSCAASGFTFSHYDMHWVRQAPGKGLEWVAVISYHGSVKFYADSVKGRFTISRDNSKNTLYLQMNSLRAEDTAVYYCARTPGFHFDYWGQGTLVTVSSAKTTPPSVYPLAPGSAAQTNSMVTLGCLVKGYFPEPVTVTWNSGSLSSGVHTFPAVLQSDLYTLSSSVTVPSSTWPSETVTCNVAHPASSTKVDKKIVPRDCGCKPCICTVPEVSSVFIFPPKPKDVLTITLTPKVTCVVVDISKDDPEVQFSWFVDDVEVHTAQTQPREEQFNSTFRSVSELPIMHQDWLNGKEFKCRVNSAAFPAPIEKTISKTKGRPKAPQVYTIPPPKEQMAKDKVSLTCMITDFFPEDITVEWQWNGQPAENYKNTQPIMDTDGSYFVYSKLNVQKSNWEAGNTFTCSVLHEGLHNHHTEKSLSHSPGK
light: QSVLTQPPSASGTPGQRVTISCSGSSSNIGSNYVSWYQQLPGTAPKLLIYYDDLRPSGVPDRFSGSKSGTSASLAISGLRSEDEADYYCSAWDDSLSGVVFGGGTKLTVLGQPKSSPSVTLFPPSSEELETNKATLVCTITDFYPGVVTVDWKVDGTPVTQGMETTQPSKQSNNKYMASSYLTLTARAWERHSSYSCQVTHEGHTVEKSLSRADCS
notes: mIgG1, Lambda
Efficacy (%) (human IL-11): 81.3%
IC50 (human IL-11): 2.4 nM

B4: TPP-29528 (antibody, mouse IgG1)
heavy: EVQLLESGGGLVQPGGSLRLSCAASGFTFSSYGMHWVRQAPGKGLEWVAVISYDGSYKYYADSVKGRFTISRDNSKNTLYLQMNSLRAEDTAVYYCAAGVPDYWGQGTLVTVSSAKTTPPSVYPLAPGSAAQTNSMVTLGCLVKGYFPEPVTVTWNSGSLSSGVHTFPAVLQSDLYTLSSSVTVPSSTWPSETVTCNVAHPASSTKVDKKIVPRDCGCKPCICTVPEVSSVFIFPPKPKDVLTITLTPKVTCVVVDISKDDPEVQFSWFVDDVEVHTAQTQPREEQFNSTFRSVSELPIMHQDWLNGKEFKCRVNSAAFPAPIEKTISKTKGRPKAPQVYTIPPPKEQMAKDKVSLTCMITDFFPEDITVEWQWNGQPAENYKNTQPIMDTDGSYFVYSKLNVQKSNWEAGNTFTCSVLHEGLHNHHTEKSLSHSPGK
light: QSVLTQPPSASGTPGQRVTISCSGSSSNIGSDYDVHWYQQLPGTAPKLLIYSNEERPSGVPDRFSGSKSGTSASLAISGLRSEDEADYYCSAWDSSLSGPVFGGGTKLTVLGQPKSSPSVTLFPPSSEELETNKATLVCTITDFYPGVVTVDWKVDGTPVTQGMETTQPSKQSNNKYMASSYLTLTARAWERHSSYSCQVTHEGHTVEKSLSRADCS
notes: mIgG1, Lambda
Efficacy (%) (human IL-11): 94.7%
IC50 (human IL-11): 1 nM

Further lines, results first:

Ratio IL-2Ra Binding Signal Antibody/Isotype Control (human IL2Ra): 0.8 ratio
B1: TPP-29697 (bispecific antibody, IgG1)
chain 1: QVQLVESGGGVVQPGRSLRLSCAASGFTFSHYDMHWVRQAPGKGLEWVAVISYHGSVKFYADSVKGRFTISRDNSKNTLYLQMNSLRAEDTAVYYCARTPGFHFDYWGQGTLVTVSSGGGGSGGGGSGGGGSQSVLTQPPSASGTPGQRVTISCSGSSSNIGSNYVSWYQQLPGTAPKLLIYYDDLRPSGVPDRFSGSKSGTSASLAISGLRSEDEADYYCSAWDDSLSGVVFGGGTKLTVLGGGGSGGGGSGGGGSGVECPPCPAPPVAGPSVFLFPPKPKDTLMISRTPEVTCVVVGVSHEDPEVKFNWYVDGVEVHNAKTKPREEQYNSTYRVVSVLTVLHQDWLNGKEYKCKVSNKQLPSPIEKTISKAKGQPREPQVYTLPPCRDELTKNQVSLWCLVKGFYPSDIAVEWESNGQPENNYKTTPPVLDSDGSFFLYSKLTVDKSRWQQGNVFSCSVMHEALHNHYTQKSLSLSPGK
chain 2: EVQLLESGGGLVQPGGSLRLSCAASGFTFSSYGMHWVRQAPGKGLEWVAVISYDGSYKYYADSVKGRFTISRDNSKNTLYLQMNSLRAEDTAVYYCAAGVPDYWGQGTLVTVSSGGGGSGGGGSGGGGSQSVLTQPPSASGTPGQRVTISCSGSSSNIGSDYDVHWYQQLPGTAPKLLIYSNEERPSGVPDRFSGSKSGTSASLAISGLRSEDEADYYCSAWDSSLSGPVFGGGTKLTVLGGGGSGGGGSGGGGSGVECPPCPAPPVAGPSVFLFPPKPKDTLMISRTPEVTCVVVGVSHEDPEVKFNWYVDGVEVHNAKTKPREEQYNSTYRVVSVLTVLHQDWLNGKEYKCKVSNKQLPSPIEKTISKAKGQPREPQVCTLPPSRDELTKNQVSLSCAVKGFYPSDIAVEWESNGQPENNYKTTPPVLDSDGSFFLVSKLTVDKSRWQQGNVFSCSVMHEALHNHYTQKSLSLSPGK
notes: scFv-kih-hIgG1 with Fc-silencing mutations; bispecific comprising CDRs of TPP-29528 and TPP-29519

Ratio IL-2Ra Binding Signal Antibody/Isotype Control (human IL2Ra): 1.9 ratio
B2: TPP-29603 (bispecific antibody, IgG1)
chain 1: QVQLVESGGGVVQPGRSLRLSCAASGFTFSHYDMHWVRQAPGKGLEWVAVISYHGSVKFYADSVKGRFTISRDNSKNTLYLQMNSLRAEDTAVYYCARTPGFHFDYWGQGTLVTVSSGGGGSGGGGSGGGGSQSVLTQPPSASGTPGQRVTISCSGSSSNIGSNYVSWYQQLPGTAPKLLIYYDDLRPSGVPDRFSGSKSGTSASLAISGLRSEDEADYYCSAWDDSLSGVVFGGGTKLTVLGGGGSGGGGSGGGGSGVECPPCPAPPVAGPSVFIFPPKPKDVLTITLTPKVTCVVVDISKDDPEVQFSWFVDDVEVHTAQTQPREEQFNSTFRSVSELPIMHQDWLNGKEFKCRVNSAAFPAPIEKTISKTKGRPKAPQVYTIPPCKEQMAKDKVSLWCMITDFFPEDITVEWQWNGQPAENYKNTQPIMDTDGSYFVYSKLNVQKSNWEAGNTFTCSVLHEGLHNHHTEKSLSHSPGK
chain 2: EVQLLESGGGLVQPGGSLRLSCAASGFTFSSYGMHWVRQAPGKGLEWVAVISYDGSYKYYADSVKGRFTISRDNSKNTLYLQMNSLRAEDTAVYYCAAGVPDYWGQGTLVTVSSGGGGSGGGGSGGGGSQSVLTQPPSASGTPGQRVTISCSGSSSNIGSDYDVHWYQQLPGTAPKLLIYSNEERPSGVPDRFSGSKSGTSASLAISGLRSEDEADYYCSAWDSSLSGPVFGGGTKLTVLGGGGSGGGGSGGGGSGVECPPCPAPPVAGPSVFIFPPKPKDVLTITLTPKVTCVVVDISKDDPEVQFSWFVDDVEVHTAQTQPREEQFNSTFRSVSELPIMHQDWLNGKEFKCRVNSAAFPAPIEKTISKTKGRPKAPQVCTIPPPKEQMAKDKVSLSCAITDFFPEDITVEWQWNGQPAENYKNTQPIMDTDGSYFVVSKLNVQKSNWEAGNTFTCSVLHEGLHNHHTEKSLSHSPGK
notes: scFv-kih-mIgG1; bispecific comprising CDRs of TPP-29528 and TPP-29519
